Assay [1] deals with T1, parental receptor binding domain (RBD) protein (amino acids 319 to 541 of the spike protein) with c-terminal … (SARS-CoV-2 (Wuhan-Hu-1), UniProt P0DTC2 319-541).
The target in assay [2] is T2, SARS CoV-2 spike trimer protein from the parental Wuhan-Hu-1 isolate (extracellular domain, furin-cl (SARS-CoV-2 (Wuhan-Hu-1))).
Assay [3] addresses T3, SARS-CoV-2 (Wuhan-Hu-1) wild-type (WT) spike protein carried on pseudotyped virus or on live wild-type virus (SARS-CoV-2 (Wuhan-Hu-1), UniProt P0DTC2 14-1273). The assay is described as follows: cell-based or functional assay.
For assay [4], the target named is T3, SARS-CoV-2 (Wuhan-Hu-1) wild-type (WT) …. As to the kind of experiment: cell-based or functional assay. This is another data set of the same source.
For assay [5], the target named is T1, parental receptor binding domain (RBD) …. The assay is described as follows: ELISA, RBD coated, IgG detected with anti-human Fc-HRP. A general note: An ELISA detects its analyte on a solid surface through an enzyme-linked reagent.
For assay [6], the target named is recombinant stabilized spike protein derived from the beta strain (formerly described as the South A (SARS-CoV-2 (B.1.351), UniProt P0DTC2 14-1208)).
In assay [7] the target is T2, SARS CoV-2 spike trimer protein from …. The source holds these as a separate data set.
The target of assay [8] is T4, SARS-CoV-2 B.1.351 ('SA', beta) variant spike protein on pseudotyped virus or live virus (SARS-CoV-2 (B.1.351), UniProt P0DTC2 14-1273). As to the kind of experiment: cell-based or functional assay.
The target in assay [9] is SARS-CoV-2 spike protein variant 484K on pseudotyped virus (SARS-CoV-2, UniProt P0DTC2 14-1273). The assay is described as follows: cell-based or functional assay.
Assay [10] addresses T4, SARS-CoV-2 B.1.351 ('SA', beta) variant …. The assay is described as follows: cell-based or functional assay. The source holds these as a separate data set.
For assay [11], the target named is T2, SARS CoV-2 spike trimer protein from …. As to the kind of experiment: ELISA, spike protein coated, IgG detected with anti-human Fc-HRP.
Assay [12] deals with S protein of a SARS-CoV-2 delta lineage virus on pseudotyped virus (SARS-CoV-2 (delta lineage)). The assay is described as follows: cell-based or functional assay.

In general, EC50 (read off the curve) refers to the concentration that produces a half-maximal response. Usually EC50 stands for the concentration needed to bring the measured effect to its halfway point.

Like-named read-outs stand apart in the source and are kept apart here. Where only a bound is given, the exact number is not on record here.

B1: R2G3 ultralong CDR3 chimeric bovine-human IgG1 antibody (antibody)
VH: QVQLRESGPSLVKPSQTLSLTCAASGFSLSDKAVGWVRRAPGKALEWLGSIDTGGSTGYNPGLKSRLSITKDNSKSQVSLSISSVTSEDSATYYCATVHQKTAEGDKTCPDGYEHTCGCIGGCGCKRSACIGALCCQASLGGWLSDGETYTYEFHVDTWGQGLVVTVSS
VL: QAVLNQPSSVSGSLGQRVSITCSGSSSNVGNGYVSWYQLIPGSAPRTLIYGDTSRASGVPDRFSGSRSGNTATLTISSLQAEDEADYFCASAEDSSSNAVFGSGTTLTVL
As for B1, the “EC50 (read off the curve)” value in assay [1] is around 0.02 nM; in assay [2], around 0.01 nM; in assay [6], around 0.2 nM; in assay [7], around 0.4 nM. The “live SARS CoV-2 neutralization, ng/mL (quantity not given)” value in assay [3] turned out to be 0.5 ng/mL. The “pseudovirus neutralization, ng/mL (quantity not given)” value in assay [3] was 0.2 ng/mL. Further, in [4], the “pseudovirus neutralization IC50 (luciferase assay)” value is above 1 ng/mL. Besides, the EC50 in [5] is 0.056 nM.

B2: SKD ultralong CDR3 chimeric bovine-human IgG1 antibody (antibody)
VH: QVQLRESGPSLVKPSQTLSLTCTASGFSLSDKAVGWVRQAPGKALEWLGSIDTGGNTGYNPGLKSRLSITKDNSKSQVSLSVSSVTTEDSATYYCTTVHQRTSEKRSCPGGSSRRYPSGASCDVSGGACACYVSNCRGVLCPTLNEIVAYTYEWHVDAWGQGLLVTVSS
VL: QAVLNQPSSVSGSLGQRVSITCSGSSSNVGNGYVSWYQLIPGSAPRTLIYGDTSRASGVPDRFSGSRSGNTATLTISSLQAEDEADYFCASAEDSSSNAVFGSGTTLTVL
On to B2, for which the “pseudovirus neutralization, ng/mL (quantity not given)” value in [8] was above 1000 ng/mL. For the same molecule, the “pseudovirus luciferase assay EC50” value in assay [9] and in assay [10] was above 1 nM each time.

B3: RBD F4 chimeric bovine-human IgG1 antibody (antibody, V domains shown)
VH: QVQLRESGPSLVKPSQTLSLTCTVSGFSLSSNGVVWVRQAPGKALEWLGDICSTGGTSFNPALKSRLSIAKDNSKSQVSLSVRSVTPEDTATYYCARSRGYDCYANVDALDYVDAWGQGLLVTVSS
VL: QAVLNQPSSVSGSLGQRVSITCSGSSSNVGNGYVSWYQLIPGSAPRTLIYGDTSRASGVPDRFSGSRSGNTATLTISSLQAEDEADYFCASAEDSSSNAVFGSGTTLTVL
Turning to B3, the EC50 in assay [11] and in [5] was 0.03 nM each time.

B4: R2D9 ultralong CDR3 chimeric bovine-human IgG1 antibody (antibody)
VH: QVQLRESGPSLVKPSQTLSLTCTASGFSLSDKAIGWVRQAPGKALEWLGSIDTRGNTGYNPGLKSRLSITKDSSKSQVSLSVNSVTTEDSATYLCAIVQQITHKTCPNGYNWFDRCCSWDGTCGDGCCSNRAWPSGNGRADSSIGETYGYEFHVAAWGQGLLVTVSS
VL: QAVLNQPSSVSGSLGQRVSITCSGSSSNVGNGYVSWYQLIPGSAPRTLIYGDTSRASGVPDRFSGSRSGNTATLTISSLQAEDEADYFCASAEDSSSNAVFGSGTTLTVL
B4: the “pseudovirus neutralization, ng/mL (quantity not given)” value worked out at 0.26 ng/mL in assay [3], 0.33 ng/mL in [8] and 0.32 ng/mL in assay [12].

B5: SKM ultralong CDR3 chimeric bovine-human IgG1 antibody (antibody)
VH: QVQLRESGPSLVKPSQTLSLTCTASGFSLSDKAVGWVRQAPGKALEWLGSIDTGGNTGYNPGLKSRLSITKDNSKSQVSLSVSSVTTEDSATYYCTTVHQETLRSCPDGYIDNSGCTADWGCAALDCWRRRFGYHSTDPSHYTGATYIYTYSLHIDAWGQGLLVTVSS
VL: QAVLNQPSSVSGSLGQRVSITCSGSSSNVGNGYVSWYQLIPGSAPRTLIYGDTSRASGVPDRFSGSRSGNTATLTISSLQAEDEADYFCASAEDSSSNAVFGSGTTLTVL
As to B5, the “pseudovirus neutralization, ng/mL (quantity not given)” value in assay [8] was above 1000 ng/mL. The “pseudovirus luciferase assay EC50” value in assay [9] and in assay [10] was above 1 nM each time.

B6: R2D6 chimeric bovine-human IgG1 antibody (antibody, V domains shown)
VH: QVQLRESGPSLVKPSQTLSLTCTTSGFSLSSYAVGWVRQAPGKALEWVGDIDYVGNTDYNPALKSRLSITKDNSKSQVSLVVSSVTAEDAATYYCAKYSGAYAYAACNYYGWRCAWESYIDAWGQGLLVTVSS
VL: QAVLNQPSSVSGSLGQRVSITCSGSSSNVGNGYVSWYQLIPGSAPRTLIYGDTSRASGVPDRFSGSRSGNTATLTISSLQAEDEADYFCASAEDSSSNAVFGSGTTLTVL
With B6, the EC50 is 0.41 nM in [11] and 0.57 nM in assay [5].

B7: R2B1 chimeric bovine-human IgG1 antibody (antibody, V domains shown)
VH: QVQLRESGPSLVKPSQTLSLTCTVSGFSLSDNNVGWVRQAPGKALEWLGVMHNDGNKGYNPALKSRLSITKDSSKSQVSLSLSSVTSEDTATYYCTRDNARCDSWTYDSCDTWYRNSWHVDAWGQGLLVTVSS
VL: QAVLNQPSSVSGSLGQRVSITCSGSSSNVGNGYVSWYQLIPGSAPRTLIYGDTSRASGVPDRFSGSRSGNTATLTISSLQAEDEADYFCASAEDSSSNAVFGSGTTLTVL
With B7, the figures for the EC50 in assay [11] and in assay [5] were 0.37 nM and 0.52 nM, respectively.

B8: R2F12 ultralong CDR3 chimeric bovine-human IgG1 antibody (antibody)
VH: QVQLRESGPSLVKPSQTLSLTCTVSGFSLSDKAVGWVRRAPGKALEWLGSIDTGGMTGYNPGLKSRLSITKDNSKSQVSLSVNSVTTEDSATYYCATVDQKTKNACPDDFDYRCSCIGGCGCARKGCVGPLCCRSDLGGYLTDSPAYIYEWYIDLWGQGLLVTVSS
VL: QAVLNQPSSVSGSLGQRVSITCSGSSSNVGNGYVSWYQLIPGSAPRTLIYGDTSRASGVPDRFSGSRSGNTATLTISSLQAEDEADYFCASAEDSSSNAVFGSGTTLTVL
For B8, the EC50 amounted to 0.05 nM in assay [11] and 0.085 nM in assay [5]. Further, the “EC50 (read off the curve)” value in assay [1] was around 0.03 nM; in assay [2] it was around 0.02 nM; in [6] it was around 0.2 nM; in [7] it was around 0.3 nM.

B9: R2C3 (R5C1) ultralong CDR3 chimeric bovine-human IgG1 antibody (antibody)
VH: QVQLRESGPSLVKPSQTLSLTCTASGFSLSDKPVGWVRQAPGKPLEWLGSIDTAENTGYNPGLKSRLSITKDNSKSQVSLSLSSVTTEDSATYYCATVHQKTRKEKSCPDGYLYSSNTGRGYDCGVWTCRRVGGEFCSATGDWTSPSEEDFYEFYVDTWGQGAPVTVSS
VL: QAVLNQPSSVSGSLGQRVSITCSGSSSNVGNGYVSWYQLIPGSAPRTLIYGDTSRASGVPDRFSGSRSGNTATLTISSLQAEDEADYFCASAEDSSSNAVFGSGTTLTVL
Turning to B9, in assay [11], the half-maximal effective concentration (EC50) amounted to 0.39 nM. For the same molecule, the “EC50 (read off the curve)” value in [6] and in assay [7] was around 0.3 nM in each case.

B10: R4C1 ultralong CDR3 chimeric bovine-human IgG1 antibody (antibody)
VH: QVQLRESGPSLVKPSQTLSLTCTASGFSLSDKAVGWVRQAPGKPLEWLGSIDTAENTGYNPGLKSRLSITKDNSKSQVSLSVSSVTTEDSATYYCATVHQKTRKEKNCPDGYIYSSNTASGYDCGVWICRRVGSAFCSRTGDYTSPSEFDIYEFYVEGWGQGLLVTVSS
VL: QAVLNQPSSVSGSLGQRVSITCSGSSSNVGNGYVSWYQLIPGSAPRTLIYGDTSRASGVPDRFSGSRSGNTATLTISSLQAEDEADYFCASAEDSSSNAVFGSGTTLTVL
With B10, the figures for the “pseudovirus neutralization, ng/mL (quantity not given)” value in assay [3] and in assay [8] were 99.9 ng/mL and 375 ng/mL, respectively.

B11: RBD C6 chimeric bovine-human IgG1 antibody (antibody, V domains shown)
VH: QVQLRESGPSLVKPSQTLSLTCTVSGFSLSSNGVVWVRQAPGRPLEWLGDICSNGGTSFNPALKSRLSIAKDNSESQVSLTVRSVTPEDTATYYCARSRGYDCYAYVYALDTVDAWGQGLLVTVSS
VL: QAVLNQPSSVSGSLGQRVSITCSGSSSNVGNGYVSWYQLIPGSAPRTLIYGDTSRASGVPDRFSGSRSGNTATLTISSLQAEDEADYFCASAEDSSSNAVFGSGTTLTVL
Turning to B11, the EC50 in [11] and in assay [5] was 0.03 nM in each case.

B12: SR3A3 ultralong CDR3 chimeric bovine-human IgG1 antibody (antibody)
VH: QVQLRESGPSLVKPSQTLSLTCTISGFSLSSYAVLWVRQAPGKPLEWLGSIDTAENTGYNPGLKSRLSITKDNSKSQVSLSVSSVTTEDSATYYCATVHQKTRKEKNCPDGYIYSSNITSGFDCGVWICRRVGSAFCSRTGDYTSPTELDIYEFYVEGWGQGVPVTVSS
VL: QAVLNQPSSVSGSLGQRVSITCSGSSSNVGNGYVSWYQLIPGSAPRTLIYGDTSRASGVPDRFSGSRSGNTATLTISSLQAEDEADYFCASAEDSSSNAVFGSGTTLTVL
Consider B12, for which the EC50 in assay [11] was determined as 0.037 nM. Also, the binding result in [5] is “binds”.

B13: RBD A2 chimeric bovine-human IgG1 antibody (antibody, V domains shown)
VH: QVQLRESGPSLVKPLQILSLTCTVSGFSLSSNGVVWVRQAPGKALEWLGDICSTGGTSFNPALKSRLSIAKDNSKSQVSLSVRSVTPEDTATYYCARSRGYDCYANVDALDYVDAWGQGLLVTVSS
VL: QAVLNQPSSVSGSLGQRVSITCSGSSSNVGNGYVSWYQLIPGSAPRTLIYGDTSRASGVPDRFSGSRSGNTATLTISSLQAEDEADYFCASAEDSSSNAVFGSGTTLTVL
On to B13, for which the half-maximal effective concentration (EC50) in [11] was determined as 0.024 nM; in [5] it was 0.03 nM.

(Values after patent US20240262893A1 (APPLIED BIOMEDICAL SCIENCE INSTITUTE, published 2024).)
